Laboratory results reported in article PMC11082093, “A 3′‐pre‐tRNA‐derived small RNA tRF‐1‐Ser regulated by 25(OH)D promotes proliferation and stemness by inhibiting the function of MBNL1 in breast cancer”.

T1: MBNL1 recombinant (UniProt Q9NR56 1-388)
T1 sequence: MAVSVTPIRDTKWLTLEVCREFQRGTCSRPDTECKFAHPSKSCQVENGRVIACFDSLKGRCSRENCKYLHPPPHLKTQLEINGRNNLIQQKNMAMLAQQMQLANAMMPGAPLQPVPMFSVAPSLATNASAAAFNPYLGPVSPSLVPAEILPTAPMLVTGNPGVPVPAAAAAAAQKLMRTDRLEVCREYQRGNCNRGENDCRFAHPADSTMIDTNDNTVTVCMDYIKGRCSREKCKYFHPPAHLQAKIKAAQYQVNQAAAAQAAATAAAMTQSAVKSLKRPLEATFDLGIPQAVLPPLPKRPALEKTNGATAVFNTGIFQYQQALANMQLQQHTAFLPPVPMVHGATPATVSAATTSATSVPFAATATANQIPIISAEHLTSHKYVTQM


What was measured:
MBNL1 recombinant [1] = molecular target: T1, MBNL1 recombinant; assay: EMSA; EMSA: REMSA Binding Buffer (Beyotime), 4 °C, 10 min; 6% TBE PAGE in ice box; salt and pH not given; details: protein: commercial; label: biotin
MBNL1 recombinant [2] = molecular target: T1, MBNL1 recombinant; assay: competition; excess unlabelled vs biotin-labelled tRF-1-Ser; EMSA; EMSA: REMSA Binding Buffer (Beyotime), 4 °C, 10 min; 6% TBE PAGE in ice box; salt and pH not given; details: protein: commercial

| Binder | binding result (MBNL1 recombinant [1]) | binding result (MBNL1 recombinant [2]) |
| --- | --- | --- |
| GAAGCGGGUGCUCUUAUUUU (ssRNA) [tRF-1-Ser] | binds |  |
| GAAGCGGGCAACCUUAUUUU (ssRNA) [tRF-1-Ser-UGCU-mut] | no binding |  |
| GAAGCGGGUGCUCUUAUUUU (ssRNA) [tRF-1-Ser unlabelled (mimic)] |  | binds |
